# Assay: yeast display, Sf9 membrane polyspecificity reagent, FACS + sequencing; frameworks hold sequencing errors
# Method in brief: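 Genes from sorted yeast were amplified by colony PCR, read by MiSeq 2 × 250 sequencing and filtered on CDR length. These cells carried a synthetic nanobody library in Saccharomyces cerevisiae BJ5465 and were sorted by FACS into low and high (top ~1%) gates on anti-HA and streptavidin fluorescence. Polyreactivity is labelled according to the gate of origin.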
row,Sequence,polyreactivity (PSR sort gate)
1,QVQLVESGGGLVQAGGSLRLSCAASGFIFTFYAMGWYRQAPGKEREFVASIDWGDGSTYYADSVKGRFTISRDNAKNTVYLQMNSLKPEDTAVYYCAHDYDGYVWDTEYDYWGQGTQVTVSS,low polyreactivity
2,QVQLVESGGGLVQAGGSLRLSCAASGFIFTGNVMGWYRQAPGKERELVAAITSSGGSTYYADSVKGRFTISRDNAKNTVYLQMNSLKPEDTAVYYCATRYGGRYYWGQGTQVTVSS,high polyreactivity
3,QVQLVESGGGLVQAGGSLRLSCAASGFIFTGYAMGWYRQAPGKERELVAAITRNGGSTYYADSVKGRFTISRDNAKNSVYLQMNSLKPEDTAVYYCAARGNRVSPEYYYWGQGTQVTVSS,high polyreactivity
4,QVQLVESGGGLVQAGGSLRLSCAASGFIFTGYTMGWYRQAPGKERELVAAISYRGGSTYYSDSVKGRFTISRDNAKNTVYLQMNSLKPEDTEVYFCAAESIYFYEYDYWGQGTQVTVSS,high polyreactivity
5,QVQLVESGGGLVQAGGSLRLSCAASGFIFTIYAMGWYRQAPRKERELVAAITWNGGRTYYADSVKGRFTISRDNAKNTVYLQMISLKPEDTAVYYCAARYGRAYDYWGQGTQVTVSS,high polyreactivity
6,QVQLVESGGGLVQAGGSLRLSCAASGFIFTKNTMGWYRQAPGKEREWVAAISRGGSTYYADSVKGRFTISRDNAKNTVYLQMNSLKPEDTAVYYCAALYNSTKYGVYTNGPQAEYDYWGQGTQVTVSS,high polyreactivity
7,QVQLVESGGGLVQAGGSLRLSCAASGFIFTLYAMGWYRQAPGKERELVASIRGSGGNTYYADSVKGRFTISRDNAKNTVYLQMNSLKPEDTAVYYCAARTYRRPYYSWGQGTQVTVSS,high polyreactivity
8,QVQLVESGGGLVQAGGSLRLSCAASGFIFTPYAKGWYRQAPGKERELVAAISSGGSTYADSVKGRFTISRDNAKNTVYLQMNSLKPEDTAVYYCAAYYTGYSTTYYYWGQGTQVSVSS,low polyreactivity
9,QVQLVESGGGLVQAGGSLRLSCAASGFIFTPYAMGWYRQAPGKERELVAAISRSAGSTYYADSVKGRFTISRDNAKNTVYLQMNSLKPEDTAVYYCAADSLTYIAYDYWGQGTQVTVSS,high polyreactivity
10,QVQLVESGGGLVQAGGSLRLSCAASGFIFTQYTMGWYRQAPGKERELVAAISFSDSSTYYADSVKGRFTISRDNAKNTVYLEMNSLKPEDTAVYFCAADYSVTLRIGGYYWFYAFDYWGQGTQVTVSS,low polyreactivity
11,QVQLVESGGGLVQAGGSLRLSCAASGFIFTRYAMGWYRPAPGKERELVAAISASGGSTYYADSVKGRFTISRDNAKNTVYLQMNSLKPEDTAVYYCAAGGSWFRYPPRMDYWGQGTQVTVSS,high polyreactivity
12,QVQLVESGGGLVQAGGSLRLSCAASGFIFTRYAMGWYRQAPGKERELVAAISWIGTSTYYADSVKGRFTISRDNAKNTVYLQMNSLKPEDTAVYYCNALRYSTGRPGFYLGYDYWGQGTQVTVSS,high polyreactivity
13,QVQLVESGGGLVQAGGSLRLSCAASGFIFTRYVMGWYRQAAGKERELVAAISRIGASTYYADSVKGRFTISRDNAKNNFYLQMNCLNPEATAVYYCKVVSGGYCEYDYWGHGTQVTVSS,high polyreactivity
14,QVQLVESGGGLVQAGGSLRLSCAASGFIFTTNAMGWYRQAPGKERELVAAITRSGGSTYADSVKGRFTISRDNAKNTVYLQMNSLKPEDTAVYYCNADWAGVYTSYEYDYWGQGTQVTVSS,low polyreactivity
15,QVQLVESGGGLVQAGGSLRLSCAASGFIFTWYAMGWYRQAPGKEREFVAGISRSGGRTYYADSLKGRFTISRDNAKNTVYLQMNSQKPEDTAVYDCNAVLVGYRPYREFDHWGQGTQVTVSS,high polyreactivity
16,QVQLVESGGGLVQAGGSLRLSCAASGFIFTYYAMGWYRQAPGKERELVAAITSGGSTNYADSVKGRFTISRDNAKITVYLQMNSLKPEDTAVYYCASRIYYGRFWYDYWGQGTQVTVSS,high polyreactivity
17,QVQLVESGGGLVQAGGSLRLSCAASGFIFTYYAMGWYRQAPGKERELVAVISWSGGTTYYADSVKGRFTISRDNAKNTVYLQMNSLKPEDTAVYYCNADRSLLYSRKIEYDYWGQGTQVTVSS,low polyreactivity
18,QVQLVESGGGLVQAGGSLRLSCAASGFIFVDYAMGWYRQAPGKERELVAAISSSGSTTYADSVKGRFTISRDNAKNIVYLKMNSLKPEDTAVYYCAAGLPRVLKDATFDYWGQGTQVTVSS,low polyreactivity
19,QVQLVESGGGLVQAGGSLRLSCAASGFIFVFNTMGWYRQAPGKERELVAAISVSGDSTYADSVKGRFTISRDNAKNTVYLQMNSLKPEDTAVYYCNAGSTELGWTWELDYWGQGTQVNVSS,high polyreactivity
20,QVQLVESGGGLVQAGGSLRLSCAASGFIFVIYGMGWYRQAPGKERELVAAISRGGSTYADSVKGRFTISRDNAKNTVYLQMNSLKPEDTAVYYCNARLYKRGGFGYYYWGQGTQVTVSS,high polyreactivity
21,QVQLVESGGGLVQAGGSLRLSCAASGFIFVLYTMGWYRQAPGKEREMVASITQSGGSTYYADSVKGRFTISRDNAKNTVYLQMNSLKPEDTAVYYCAAVWAHEWWELDYWGQGTQVTVSS,low polyreactivity
22,QVQLVESGGGLVQAGGSLRLSCAASGFIFVPYTMGWYRQAPGKERELVATINSNGGSTYYADSVKGRFTISRDNAKNTVYLQMNSLKPEDTAVYYCAAYYRWIGGRYTPYYYWGQGTQVTVSS,high polyreactivity

row,Sequence,polyreactivity (PSR sort gate)
1,QVQLVESGGGLVQAGGSLRLSCAASGFIFVQNTMGWYRQAPGKERELVAAISRGTGRTYYADSVKGRFTISRDNAKNTVYLQMNSLKPDDTAVYYCNVVYPQRYRSREDDYWGQGTQVTVSS,high polyreactivity
2,QVQLVESGGGLVQAGGSLRLSCAASGFIFVRYAMGWYRQAPGKERELVASISGRGSSTYYADSVKGRFTISRDNAKNTVYLQMNSLKPEDTAVYYCAADYYRRIGGYPYDYDYWGQGTQVTVSS,high polyreactivity
3,QVQLVESGGGLVQAGGSLRLSCAASGFIFVRYARGWNRQAPGKERELVASITRSGGSTYYADSVKGRFTISRDNAKNTVYLQMNSLKPEDTAVYYCAASYYRSRGSTYGYWGQGTQVTVSS,high polyreactivity
4,QVQLVESGGGLVQAGGSLRLSCAASGFIFVYNAMGWYRPAPGKERELVAAIDYGGGSTTYADSVKGRFTISRDNAKNTVYLQMNSLKPEDTAVYYCAAYYRYLDDIYEYEYWGQGTQVTVSS,low polyreactivity
5,QVQLVESGGGLVQAGGSLRLSCAASGFIFVYNAMGWYRQAPGKEREFVASITWSGGRTYYADSVKGRFTISRDNAKNTVYLQMNSLKPEDTAVYYCATKYPNSQGRRYDYWGQGTQVTVSS,low polyreactivity
6,QVQLVESGGGLVQAGGSLRLSCAASGFIFVYNSMGWSRPAPGKEREFVASITWSGGRTYYADSVKGRFTISRDNAKNTVYLQMNSLKREVTAVYFCATKYPNSQVRRYDYWGQGTQVTVSS,low polyreactivity
7,QVQLVESGGGLVQAGGSLRLSCAASGFIFVYYAMGWYRQAPGKERELVAAISGHGGRTYYADSVKGRFTISRDNAKNTVYLQMNSLKPEDTAVYYCAALLYWRGYGYNYWGQGTQVTVSS,high polyreactivity
8,QVQLVESGGGLVQAGGSLRLSCAASGFIFVYYAMGWYRQAPGKERELVAAISRASSTSYADSVKGRFTISRDNAKNTVYLQMISLKPEDTAVYYCAAVYYGGFSDYDYWGQGTQVTVSS,low polyreactivity
9,QVQLVESGGGLVQAGGSLRLSCAASGFIFVYYAMGWYRQAPGKERELVAAITWRGGSTNYADSVKGRFTISRDNAKNTVYLQMNSLIPEDTAVYYCAAYSVWGGSYLALDYWGQGSQVTVSS,low polyreactivity
10,QVQLVESGGGLVQAGGSLRLSCAASGFIFVYYVMGWYRQAPGKERELVAAITQSGGSTYYADSVKGRFTISRDNAKNTVYLQMNSLKPEDTAVYYCAAYRRTTGGGYDYWGQGTQVTVSS,high polyreactivity
11,QVQLVESGGGLVQAGGSLRLSCAASGFIFVYYVMGWYRQAPGKERELVAAITQSGGSTYYADSVKGRFTISRDNAKYTVYLQMNSLKPEDTAVYYCAAYRRTTGGGYDYWGQGTQVTVSS,high polyreactivity
12,QVQLVESGGGLVQAGGSLRLSCAASGFIFWANAMGWYRQAPGKERELVAAITWRNGRTYYADSVKGRFTISRDNAKNTVYLQMNSLKPEDTAVYYCAAPGSYARGTGRDYWGQGTQVTVSS,high polyreactivity
13,QVQLVESGGGLVQAGGSLRLSCAASGFIFWAYAMGWYRLAPGKERELVAAITWNGGSTNYADSVKGRFTISRDNAKNTVYLQMNSLKPEDTAVYYCAVSRSLSFRYPGYYWGQGTQVTVSS,low polyreactivity
14,QVQLVESGGGLVQAGGSLRLSCAASGFIFWAYDMGWYRQAPGKERELVAGISKRGGTTYYADSVKGRFTISRDNAKNTVYLQMNSLKPEDTAVYYCAVRLYLEMDYWGQGTQVTVSS,high polyreactivity
15,QVQLVESGGGLVQAGGSLRLSCAASGFIFWDYAMGWYRQAPGKERELVAAISDSGGDTYYADSVKGRFTISRDNSKNTDYLQMNSLKPEDTAVYYCAADVELWVFRGQQYDYWGQGTQVTVSS,low polyreactivity
16,QVQLVESGGGLVQAGGSLRLSCAASGFIFWENAMGWSRQAPGKERELVAAISKSGTRTYYADSVKGRFTISRDNAKNTVYLQMNSLKPEDTAVYYCAAEGSGYEYYYWGQGTQVTVSS,high polyreactivity
17,QVQLVESGGGLVQAGGSLRLSCAASGFIFWKNAMGWYRQAPGKERELVAAISWSGGRTYYADSVKGRFTISRDNAKNTVYLQMNSLKPEDTGVYYCDASVGPFPVRGDYWGQGTQVTVSS,low polyreactivity
18,QVQLVESGGGLVQAGGSLRLSCAASGFIFWKYAKGWYRQAPGKERELVAAISTTGGSTYYADSVKGRFTNSRDNAKNTVYLQMNSLKPEDTAVYYCAAQVGRGYEVYPVYKYGYWGQGTQVTVSS,high polyreactivity
19,QVQLVESGGGLVQAGGSLRLSCAASGFIFWRNAMGWDRQAPGKDRELVATISRSGGSTYYADSVKGRFTISRDTAKNTVYLQMNSLKPEDTAVYYCATVPWYYWGTHRTLYDYWGQGTQVTVSS,high polyreactivity
20,QVQLVESGGGLVQAGGSLRLSCAASGFIFWSYAMGWYRQAPGKERELVAAIDLTGGSTYYADSVKGRFTISRDNAKNTVYFQMNSLKPEDTAVYYCNADGDTYAFTNSDSGFDYWGQGTQVTVSS,low polyreactivity
21,QVQLVESGGGLVQAGGSLRLSCAASGFIFWSYAMGWYRQAPGKERELVAVITSGASTYYADSVKGRFTISRDNAKNTVYLQMNSLKPEDTAVYYSAAEYWVPAWKFGYEYWGQGTQVTVSS,high polyreactivity

# — the nanobody polyreactivity screen of Harvey et al. (2022)
